What was measured:
[1] = ADP-ribose binding assay; details: 1 μM ARH3, 3 μM [14C]ADP-ribose, 30° C., 16 h
Experimental: ADP-ribose binding assay. [^14C]ADP-ribose was generated by incubation overnight at 30° C. of 80 μM (10 μCi) [adenine-U-^14C]NAD with 50 μl of RT6.2 solution (5 nmol/h NADase activity; gift from Dr. Sunhee Park, NHLBI, National Institutes of Health, Bethesda, Md.) in 250 μl of 50 mM potassium phosphate, pH 7.5, and purified by HPLC using Zorbax Sax column as described above. [^14C]ADP-ribose, eluted at 40 min, was stored at −20° C.
To assess protein binding, 1 μM human wild type or D77N/D78N mutant ARH3 was incubated (30° C., 16 h) with 3 μM [^14C]ADP-ribose in 50 mM potassium phosphate buffer, pH 7.5, without or with 10 mM MgCl2, and/or 5 mM DTT (total volume 100 μl). A sample (90 μl) was applied to a column (0.5×4 cm) of Affi-Gel boronate (100 mg, Bio-Rad) which was equilibrated with 0.1 M glycine, pH 9.0, containing 0.1 M NaCl, with or without 10 mM MgCl2, and/or 5 mM DTT, and eluted with five 1-ml portions of the same solution. The total eluate, containing ARH with bound ADP-ribose was collected for liquid scintillation counting.
After incubation of wild-type or mutant ARH3 (1 μM) with [^14C]ADP-ribose (3 μM) (30° C., 16 h) without or with 10 mM MgCl2 and/or 5 mM DTT (total volume 100 μl), unbound ADP-ribose was removed by binding to Affi-gel boronate (Bio-Rad), and ARH3 with ADP-ribose bound, was collected for radioassay. […]

[2] = Poly(ADP-ribose) hydrolysis (autoradiography, high resolution PAGE, HPLC); type: biochemical
Experimental: Poly(ADP-ribose) hydrolysis by autoradiography. [^32P]poly(ADP-ribose)PARP (500 ng of PARP with poly(ADP-ribose) was incubated (37° C., 2 h) with 2 μM ARH in 25 μl of 50 mM potassium phosphate buffer, pH 7.5, with or without 10 mM MgCl2 and/or 5 mM DTT. Reactions were stopped by adding 6 μl of 5× Laemmli buffer. Samples (20 μl) of proteins were separated by SDS-PAGE in 4-20% gels and transferred to nitrocellulose membranes that were exposed to X-ray film (Kodak) for 10 h.
Hydrolysis of poly(ADP-ribose) by PARG and ARH3. Purified [^32P] poly(ADP-ribose) (5.5×10^5 cpm, ˜300 nM ADP-ribose) was incubated for the indicated time at 37° C. in 25 μl of 50 mM potassium phosphate, pH 7.5, containing 10 mM MgCl2 and 5 mM DTT with enzyme or other additions as indicated and terminated by addition of 25 μl of 2× electrophoresis buffer (Invitrogen). [^32P]AMP was generated by incubation (37° C., 3 h) of 10 μM [^32P] NAD (10 μCi/reaction) with pyrophosphatase (40 units/mg from SIGMA, 1 mg/ml) in 25 μl of 50 mM KPO4, pH 7.5, and 10 mM MgCl2. [^32P] ADP-ribose was generated in a 25 μl mixture containing 50 mM KPO4, pH 7.5, 25 μg of activated CTA, 10 μM [^32P] NAD (10 μCi/reaction), 10 mM MgCl2, and 5 mM DTT, which was incubated at 30° C. overnight. [^32P] phosphoribosyl-AMP was generated by incubation (37° C., 3 h) of [^32P]poly(ADP-ribose) (5.5×10^5 cpm, ˜300 nM ADP-ribose) with Crotalus adamanteus phosphodiesterase (10 mU/reaction), 25 μl of 50 mM KPO4, pH 7.5, 10 mM MgCl2, and 5 mM DTT. Identities of AMP and ADP-ribose standards were confirmed by HPLC on C18 and SAX columns respectively.
High resolution Polyacrylamide Gel Electrophoresis (PAGE). Polyacrylamide (20%) gels (20×20×0.15 cm) containing polyacrylamide and bis(acrylamide), in a ratio of 19:1, 100 mM Tris-borate, pH 8.3, 2 mM EDTA, 4.4 mM ammonium persulfate, and 3.4 mM TEMED with electrophoresis carried out for 2 h at 400V with 50 mM Tris-borate, pH 8.3, 1 mM EDTA, before application of samples (15 μl) were used for analysis of poly(ADP-ribose) degradation. Subsequent electrophoresis at 400V was stopped when bromophenol blue (BPB) had moved 9 cm from the origin. Gels were exposed to X-ray films (Kodak).
HPLC analysis. HPLC, Hewlett-Packard series 1100 equipped with a diode-array spectrophotometric detector set at 254 nm, was used for separation of reaction products. For anion exchange perfusion chromatography, Zorbax SAX column (4.6×250 mm; DuPont, Wilmington Del.) was washed with 20 mM potassium phosphate, pH 4.5, for 30 min, followed by a linear gradient of 0-1M NaCl in the same buffer for 10 min (30-40 min), then same buffer with 1M NaCl for 10 min (40-50 min) at a flow rate of 1 ml/min. Nicotinamide was eluted at 3 min, NAD at 10 min, and ADP-ribose at 40 min. For reverse phase, Discovery C18 column (4.6×250 mm; SUPELCO, Bellefonte Pa.) was used. Samples were separated isocratically with 100 mM potassium phosphate, pH 6.0 containing 7% methanol at a same flow rate of 1 ml/min. ADP-ribose was eluted at 6 min, NAD at 8 min, nicotinamide 9 min.
Poly(ADP-ribose)PARP was used as substrate to assay potential poly(ADP-ribose) hydrolase activities of recombinant ARH1, 2 or 3. Products were identified by autoradiography and HPLC. Fractions (1 ml) were collected for liquid scintillation counting to quantify [^14C]ADP-ribose, which was eluted in fractions from 34 min to 43 min. Because ARH1 activity may require both DTT and Mg^2+, depending on species (Takada et al. (1993) J. Biol. Chem. 268:17837-17843; Moss et al. (1992) J. Biol. Chem. 267:10481-10488), these reactions were performed with or without 10 mM MgCl2, and/or 5 mM DTT. […] Degradation of [^32P]poly(ADP-ribose) by ARH3 was enhanced by 10 mM MgCl2 (FIG. 4A). Data were similar with mouse ARH3.
Samples of [^14C] ADP-ribosylated PARP (250 ng, 15,000 cpm, ˜850 nM ADP-ribose) were incubated at 37° C. (total volume, 100 μl) with human ARH3 as indicated. […]

[14C]ADP-ribose binding [1]: similar
B1: human ARH3: human ARH3 amino acid sequence SEQ ID NO: 2, synthesized as GST-fusion product in E. coli (protein, listed as Homo sapiens)
chain: MAAAAMAAAAGGGAGAARSLSRFRGCLAGALLGDCVGSFYEAHDTVDLTSVLRHVQSLEPDPGTPGSERTEALYYTDDTAMARALVQSLLAKEAFDEVDMAHRFAQEYKKDPDRGYGAGVVTVFKKLLNPKCRDVFEPARAQFNGKGSYGNGGAMRVAGISLAYSSVQDVQKFARLSAQLTHASSLGYNGAILQALAVHLALQGESSSEHFLKQLLGHMEDLEGDAQSVLDARELGMEERPYSSRLKKIGELLDQASVTREEVVSELGNGIAAFESVPTAIYCFLRCMEPDPEIPSAFNSLQRTLIYSISLGGDTDTIATMAGAIAGAYYGMDQVPESWQQSCEGYEETDILAQSLHRVFQKS
modifications: GST fusion
Substrate remaining, [14C]poly(ADP-ribose)PARP ([2]; 40 nM hydrolase, 60 min, 37° C.): ~75%
Release of [14C]ADP-ribose from [14C]poly(ADP-ribose)PARP relative to wild-type ARH3 ([2]; 50 nM human ARH3 (wild-type or mutant), ~2 μM ADP-ribose, HPLC C18): 100%
Poly(ADP-ribose) hydrolysis (in words) ([2]; [32P]poly(ADP-ribose) or poly(ADP-ribose)PARP, 37° C., autoradiography / PAGE / HPLC): hydrolyzed

Reference: patent publication US7670806B2, “ADP-ribosyl acceptor hydrolase 3 (ARH3) polypeptides and methods of use” (The United States of America as represented by the …, priority 2005, dated 2010)
